Assay results: patent publication US20250163137A1

Assays:
[1] = biological target: human FDP (fibrin-fibrinogen degradation products) (human) (UniProt P02671); assay: affinity test (RU read-out; instrument not named)
[2] = biological target: human FDP (fibrin-fibrinogen degradation products) (human) (UniProt P02671); assay: kinetic analysis, 1:1 binding fit (RU read-out; instrument not named)
[3] = biological target: human FDP (fibrin-fibrinogen degradation products) (human) (UniProt P02671); assay: comparison drawn from Tables 3 and 4 (kinetic analysis and affinity test)

B1: mAb 14G12-5 (antibody, V domains shown)
VH: EVQLVESGGGLVKPGGSLKLSCAASGFAFNAYDMSWVRQTPEKRLEWVAYISSSGDYTYYPDTVKGRFTVSRDNAKSTLYLHMGSLKSEDTAMYYCAVYYHYDEGLDYWGQGTALTVSS
VL: QIVLIQSPAIMSASPGEKVTMTCSASSSVNYMHWYQQKSGTSPKRWIYDTSKLASGVPARFSGSGSGTSYSLTISSMEAEDAATYYCQQWSSNPPTFGGGTKLEIKR
Which Kd [1] does the source give for B1 here?
The Kd was 157 nM.

And the Kd [2]?
The Kd was 16.5 nM.

What about the koff [2] of the same binder?
Its koff is 0.00225 s⁻¹.

What about the kon [2] of the same binder?
Its kon is 136000 M⁻¹ s⁻¹.

What about the fold binding capacity against canine FDP [3] of the same binder?
Its fold binding capacity against canine FDP is 10 fold.
